The experiment has as its target T1, 재조합 인슐린 유사 성장인자-1 수용체 (IGF-1R, R&D system, 391-GR), extracellular domain Met1-Asn932 (human, UniProt P08069 31-932).
T1 construct: range 1-932; Bought recombinant protein; also called 재조합 IGF-1R; hIGF-1R
In words: SPR (BiaCore T200), MKJP2 captured on anti-human IgG Fc CM5 chip, IGF-1R injected at 0.78-12.5 nM. On the technique in general: In SPR one partner is held on a chip, and binding of the other changes the refractive index at the surface.

Usually Kd stands for the constant that tells how readily two partners part at equilibrium. High values mean a looser complex, low ones a tighter complex.

T1 sequence (P08069 31-932 limits assumed): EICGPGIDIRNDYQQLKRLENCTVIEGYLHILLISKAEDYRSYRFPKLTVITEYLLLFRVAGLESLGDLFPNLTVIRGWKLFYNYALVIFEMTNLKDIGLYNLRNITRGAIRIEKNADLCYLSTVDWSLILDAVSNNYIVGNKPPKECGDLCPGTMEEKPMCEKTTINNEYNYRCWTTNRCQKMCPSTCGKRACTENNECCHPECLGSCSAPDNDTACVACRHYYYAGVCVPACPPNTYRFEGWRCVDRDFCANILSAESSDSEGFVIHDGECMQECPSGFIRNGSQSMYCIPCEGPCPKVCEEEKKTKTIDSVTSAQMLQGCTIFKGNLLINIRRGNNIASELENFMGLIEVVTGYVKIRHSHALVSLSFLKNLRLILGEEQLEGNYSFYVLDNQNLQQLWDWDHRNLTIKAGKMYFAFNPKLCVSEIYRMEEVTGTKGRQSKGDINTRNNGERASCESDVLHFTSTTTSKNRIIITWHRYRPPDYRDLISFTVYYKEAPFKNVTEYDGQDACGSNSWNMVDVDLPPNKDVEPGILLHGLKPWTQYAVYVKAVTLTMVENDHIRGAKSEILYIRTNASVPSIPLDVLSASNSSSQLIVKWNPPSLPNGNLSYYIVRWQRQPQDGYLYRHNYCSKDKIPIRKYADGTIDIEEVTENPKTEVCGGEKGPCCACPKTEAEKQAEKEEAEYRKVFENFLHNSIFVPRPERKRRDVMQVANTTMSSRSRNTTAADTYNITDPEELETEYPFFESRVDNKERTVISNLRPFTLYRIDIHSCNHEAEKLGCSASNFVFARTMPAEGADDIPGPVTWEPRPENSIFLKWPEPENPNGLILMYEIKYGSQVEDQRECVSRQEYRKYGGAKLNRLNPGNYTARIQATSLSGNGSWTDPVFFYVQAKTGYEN

B1: 인간 단일클론항체 MKJP2 (전체 IgG) (antibody, V domains shown)
VH: EVQLLESGGGLAQPGGSLRLSCAASGFTFSGYAMSWVRQAPGKGLEWVSAISSDGGSTYYADSVKGRFTISRDNSKNTLYLQMNSLRAEDTAVYYCARDPWFSRWTAFDYWGQGTLVTVSS
VL: QSVLTQPPSASGTPGQRVTISCSGSSSNIGNNAVNWYQQLPGTAPKLLIYSNSKRPSGVPDRFSGSKSGTSASLAISGLRSEDEADYYCGTWDYSLSGYVFGGGTKLTVLG
notes: Variable regions were cloned into the vectors E-A12H-ID (heavy) and pEA12L-ID (light); also called MKJP2 항체; 항 IGF-1R 항체 MKJP2
Turning to B1, the affinity, expressed as Kd, was 0.173 nM.
